Test results from publication PMC11237551, “MRS2 missense variation at Asp216 abrogates inhibitory Mg^2+ binding, potentiating cell migration and apoptosis resistance” (Protein Science : A Publication of the Protein Society, 2024).
Residue numbers refer to the chain shown, from its start. Names may count otherwise.

B1: human MRS2 amino terminal domain, residues 58-333 (MRS2_(58‐333)), wild type (domain or fragment, UniProt Q9HD23-1 58-333, looked up)
chain: DRLRVAGEVHRFRTSDVSQATLASVAPVFTVTKFDKQGNVTSFERKKTELYQELGLQARDLRFQHVMSITVRNNRIIMRMEYLKAVITPECLLILDYRNLNLEQWLFRELPSQLSGEGQLVTYPLPFEFRAIEALLQYWINTLQGKLSILQPLILETLDALVDPKHSSVDRSKLHILLQNGKSLSELETDIKIFKESILEILDEEELLEELCVSKWSDPQVFEKSSAGIDHAEEMELLLENYYRLADDLSNAARELRVLIDDSQSIIFINLDSHRN
notes: Mitochondrial RNA splicing protein 2 (MRS2), human, amino terminal (matrix) domain, residues 58-333 of NCBI NP_065713.1 (pre-protein numbering); theoretical monomer 32.5 kDa including cloning artifacts; Surmise: E. coli, His tag removed by protease; also called MRS2‐NTD; WT; source: recombinantly expressed and purified, as described previously (Uthayabalan et al., 2023)
B2: human MRS2 amino terminal domain, residues 58-333, E261Q mutant (MRS2_(58‐333)‐E261Q) (domain or fragment, UniProt Q9HD23-1 58-333, looked up)
chain: B1 chain with E204Q
notes: construct details in Uthayabalan et al., 2023; also called MRS2‐NTD‐E261Q; source: recombinantly expressed and purified as described for MRS2_(58‐333) (Uthayabalan et al., 2023)
B3: human MRS2 amino terminal domain, residues 58-333, D216Q mutant (MRS2_(58‐333)‐D216Q) (domain or fragment, UniProt Q9HD23-1 58-333, looked up)
chain: B1 chain with D159Q
notes: theoretical monomer 32,517 Da; construct details in Uthayabalan et al., 2023; also called MRS2‐NTD‐D216Q; source: recombinantly expressed and purified as described for MRS2_(58‐333) (Uthayabalan et al., 2023)

What was measured:
[1] = target: the molecule itself; assay: AUC; sedimentation equilibrium, 0.625 mg/mL protein, no Mg2+, 20°C, 20 mM Tris, 150 mM NaCl, 1 mM DTT, pH 8.0; global fit of 8000, 12,000, 16,000 and 20,000 rpm; dimer to monomers
[2] = target: the molecule itself; assay: SEC-MALS; Superdex 200 Increase 10/300 GL, 100 uL injected at 2.5 mg/mL, 20 mM Tris pH 8, 150 mM NaCl, 1 mM DTT, ~10°C, buffer nominally free of Mg2+
[3] = target: the molecule itself; assay: AUC; sedimentation equilibrium, 0.313 mg/mL protein, with 5 mM MgCl2, 20°C, 20 mM Tris, 150 mM NaCl, 1 mM DTT, pH 8.0; global fit of 8000, 12,000, 16,000 and 20,000 rpm; dimer to monomers
[4] = target: the molecule itself; assay: AUC; sedimentation equilibrium, 1.25 mg/mL protein, with 5 mM MgCl2, 20°C, 20 mM Tris, 150 mM NaCl, 1 mM DTT, pH 8.0; global fit of 8000, 12,000, 16,000 and 20,000 rpm; dimer to monomers
[5] = target: the molecule itself; assay: AUC; sedimentation equilibrium, 0.625 mg/mL protein, with 5 mM MgCl2, 20°C, 20 mM Tris, 150 mM NaCl, 1 mM DTT, pH 8.0; global fit of 8000, 12,000, 16,000 and 20,000 rpm; dimer to monomers
[6] = target: the molecule itself; assay: AUC; sedimentation equilibrium, 0.313 mg/mL protein, no Mg2+, 20°C, 20 mM Tris, 150 mM NaCl, 1 mM DTT, pH 8.0; global fit of 8000, 12,000, 16,000 and 20,000 rpm; dimer to monomers
[7] = target: the molecule itself; assay: AUC; sedimentation equilibrium, 1.25 mg/mL protein, no Mg2+, 20°C, 20 mM Tris, 150 mM NaCl, 1 mM DTT, pH 8.0; global fit of 8000, 12,000, 16,000 and 20,000 rpm; dimer to monomers

Protein	Kd [1] [µM]	stoichiometry N [1]	stoichiometry N [2]	Kd [3] [µM]	stoichiometry N [3]	Kd [4] [µM]	stoichiometry N [4]	Kd [5] [µM]	stoichiometry N [5]	Kd [6] [µM]	stoichiometry N [6]	Kd [7] [µM]	stoichiometry N [7]
B1	24.3	1.6	2	1760	1	55.4	1.5	146	1.1	17.4	1.7	16.4	1.7
B2	–	–	2	–	–	–	–	–	–	–	–	–	–
B3	–	–	–	11.2	2	33.6	1.6	22.2	1.8	–	–	–	–
